This assay has as its target T1, endogenous NXF1 in mouse neuronal N2A cells (mouse (endogenous in mouse neuronal N2A …, UniProt Q99JX7 2-618)).
T1 construct: Detected with anti-NXF1 clone 53H8 after anti-FLAG immunoprecipitation; also called TAP/NXF1; nuclear export factor 1
T1 sequence (looked up): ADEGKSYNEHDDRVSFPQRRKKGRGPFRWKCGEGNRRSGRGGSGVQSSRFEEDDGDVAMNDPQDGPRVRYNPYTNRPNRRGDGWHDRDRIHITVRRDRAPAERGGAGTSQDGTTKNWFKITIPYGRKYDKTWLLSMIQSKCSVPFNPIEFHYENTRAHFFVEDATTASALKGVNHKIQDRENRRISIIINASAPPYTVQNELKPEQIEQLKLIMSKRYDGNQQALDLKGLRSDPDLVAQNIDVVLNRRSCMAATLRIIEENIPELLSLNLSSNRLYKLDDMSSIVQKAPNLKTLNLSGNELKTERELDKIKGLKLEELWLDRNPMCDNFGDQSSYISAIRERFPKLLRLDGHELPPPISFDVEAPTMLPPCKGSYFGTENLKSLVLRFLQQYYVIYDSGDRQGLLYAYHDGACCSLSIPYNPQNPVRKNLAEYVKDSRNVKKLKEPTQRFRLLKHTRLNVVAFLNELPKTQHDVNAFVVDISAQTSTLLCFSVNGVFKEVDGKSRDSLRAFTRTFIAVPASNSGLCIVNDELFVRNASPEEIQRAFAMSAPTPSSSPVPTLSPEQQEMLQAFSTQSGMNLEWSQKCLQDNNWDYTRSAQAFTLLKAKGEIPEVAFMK
The assay is described as follows: anti-FLAG co-immunoprecipitation of endogenous NXF1 from transfected N2A cells (FIG. 6).

Experimental: Co-immunoprecipitation of endogenous NXF1 is assessed using anti-NXF1 antibodies;

B1: FLAG-tagged SRSF1 11-196 quadruple mutant (SRSF1-m4) (other)
chain: AGNNDCRIYVGNLPPDIRTKDIEDVFYKYGAIRDIDLKNRRGGPPFAFVEFEDPRDAEDAVYGRDGYDYDGYRLRVEFPASGAGTGRGGGGGGGGGAPRGRYGPPSAASENRVVVSGLPPSGSWQDLKDHMREAGDVCYADVYRDGTGVVEFVRKEDMTYAVRKLDNTKFRSHEGETAYIRVKVDG
notes: also called p3xFLAG/SRSF1 (11-196)-m4; dominant negative mutant SRSF1-m4; not shown: FLAG tag from the p3xFLAG vector (Sigma)
For B1, the binding result is on record as “no binding”.

Values taken from US20190194660A1 (UNIVERSITY OF SHEFFIELD, published 2019).
